In US20230038638A1, “COMPLEMENT FACTOR I-RELATED COMPOSITIONS AND METHODS” (published 2023):

Tests used:
human C4b (human) = biological target: T1, human C4b (human) (UniProt P0C0L4)
T1 sequence: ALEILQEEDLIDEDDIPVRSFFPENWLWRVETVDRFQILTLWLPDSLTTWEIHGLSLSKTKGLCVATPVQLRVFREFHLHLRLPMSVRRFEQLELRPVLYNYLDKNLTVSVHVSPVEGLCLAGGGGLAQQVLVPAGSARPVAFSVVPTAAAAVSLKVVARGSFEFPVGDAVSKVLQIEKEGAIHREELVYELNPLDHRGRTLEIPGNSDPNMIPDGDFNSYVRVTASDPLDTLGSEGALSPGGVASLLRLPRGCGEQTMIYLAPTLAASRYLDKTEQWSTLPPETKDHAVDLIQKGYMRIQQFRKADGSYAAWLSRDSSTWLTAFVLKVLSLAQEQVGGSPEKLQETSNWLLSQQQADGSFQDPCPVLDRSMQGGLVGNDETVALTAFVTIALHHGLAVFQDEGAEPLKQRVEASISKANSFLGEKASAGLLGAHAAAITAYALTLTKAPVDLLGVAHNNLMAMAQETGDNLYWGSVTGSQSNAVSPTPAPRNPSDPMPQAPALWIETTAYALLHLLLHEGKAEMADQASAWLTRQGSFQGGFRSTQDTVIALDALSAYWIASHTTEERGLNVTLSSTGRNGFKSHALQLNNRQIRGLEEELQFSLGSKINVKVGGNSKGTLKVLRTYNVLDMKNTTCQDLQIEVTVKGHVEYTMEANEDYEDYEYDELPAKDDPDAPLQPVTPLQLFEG

[1] = biological target: soluble human C3b (human) (UniProt P01024)

| C4b Screen Ref Fold (fold of CFI-HSA wild type) (human C4b (human)) | iC3b Screen Ref Fold (fold of CFI-HSA wild type) [1] | C4b Screen Ref Fold (fold of reference) (human C4b (human)) | iC3b Screen Ref Fold (fold of reference) [1] | Substance |
| --- | --- | --- | --- | --- |
| 0.1 | 0.01 |  |  | CFI-HSA Y408L; S507A; N531G; GGSSGG (SEQ ID NO: 6); CCP_1-4 (enzyme) |
|  |  | -0.05 | 0.32 | CFI-HSA variant Y408S (enzyme) |
| 4.83 | 1.39 |  |  | CFI-HSA E457G; Y408L (enzyme) |
| -0.07 | -0.03 |  |  | CFI-HSA variant N531G; S507A (enzyme) |
|  |  | 0.08 | 0 | CFI-HSA variant Y372G (enzyme) |
| 5.55 | 1.31 |  |  | CFI-HSA E457G; F464Y (enzyme) |
|  |  | 0.15 | 0.11 | CFI-HSA variant K14A; Y20F; D26A; R35A; E38A (enzyme) |
|  |  | -0.02 | 0.01 | CFI-HSA variant I317D-R318D-R319D-K320D-R321K; Y408L; N531G; E457G; E461Q; R462K; F464Y (enzyme) |
|  |  | 0.36 | 0.16 | CFI-HSA variant G344K (enzyme) |
| 4.81 | 1.1 |  |  | CFI-HSA T346K; Y408L; N531G (enzyme) |
|  |  | 0.12 | 0.12 | CFI-HSA variant E461D (enzyme) |
| 0.19 | 0.3 |  |  | CFI-HSA P535F (enzyme) |
| 0.3 | -0.01 |  |  | CFI-HSA H362T; V463S; R456F; D459W; S343R (enzyme) |
| 6.56 | 1.25 |  |  | CFI-HSA E457G; E461Q; F464Y (enzyme) |
| 3.25 | 1.98 |  |  | CFI-HSA variant D425K; E457G; E461Q; N531G; P558S (enzyme) |
|  |  | 1.32 | 0.95 | CFI-HSA variant E461S (enzyme) |
| 0.27 | 0.19 |  |  | CFI-HSA Y408L; R462K; F464Y (enzyme) |

| C4b Screen Ref Fold (fold of CFI-HSA wild type) (human C4b (human)) | iC3b Screen Ref Fold (fold of CFI-HSA wild type) [1] | C4b Screen Ref Fold (fold of reference) (human C4b (human)) | iC3b Screen Ref Fold (fold of reference) [1] | Substance |
| --- | --- | --- | --- | --- |
| 0.12 | 0.74 |  |  | CFI-HSA T407G; Y408L; E457G (enzyme) |
|  |  | 0.73 | 1.54 | CFI-HSA variant F559L (enzyme) |
| 0.1 | 0.23 |  |  | CFI-HSA F464H (enzyme) |
| 0.11 | 0.01 |  |  | CFI-HSA variant D425K; Y408M; E530F; F537K; K504R; P558S (enzyme) |
|  |  | 0.09 | 0.14 | CFI-HSA variant Q409D (enzyme) |
|  |  | 3.96 | 0.82 | CFI-HSA variant N531E (enzyme) |
| 0.07 | -0.02 |  |  | CFI-HSA variant Y408F; S507A (enzyme) |
| 0.1 | 0.67 |  |  | CFI-HSA T346R; Y408L; K504E; E530R; N531G (enzyme) |
|  |  | 0.74 | 0.56 | CFI-HSA variant G344R (enzyme) |
| 0.08 | -0.03 |  |  | CFI-HSA variant W375G (enzyme) |
| 3.13 | 0.24 |  |  | CFI-HSA variant R557A; N531M; Y403F; K504Y; E457N; E461T (enzyme) |
|  |  | 0.58 | 0.48 | CFI-HSA variant K312A; R314A (enzyme) |
| 2.94 | 1.54 |  |  | CFI-HSA L307S (enzyme) |
| 0.15 | 0 |  |  | CFI-HSA F464L (enzyme) |
| 0.18 | 0.22 |  |  | CFI-HSA variant R388G (enzyme) |
| 3.76 | 1.13 |  |  | CFI-HSA Y408L; N531G; R462K (enzyme) |
